From the supplement of paper PMC12338614

B1: library; numbered along this chain (parent)
chain: MEVVDPQQLGMFTEGELMSVGMDTFIHRIDSTEVIYQPRRKRAKLIGKYLMGDLLGEGSYGKVKEVLDSETLCRRAVKILKKKKLRRIPNGEANVKKEIQLLRRLRHKNVIQLVDVLYNEEKQKMYMVMEYCVCGMQEMLDSVPEKRFPVCQAHGYFCQLIDGLEYLHSQGIVHKDIKPGNLLLTTGGTLKISDLGVAEALHPFAADDTCRTSQGSPAFQPPEIANGLDTFSGFKVDIWSAGVTLYNITTGLYPFEGDNIYKLFENIGKGSYAIPGDCGPPLSDLLKGMLEYEPAKRFSIRQIRQHSWFRKKHPPAEAPVPIPPSPDTKDRWRSMTVVPYLEDLHGADEDEDLFDIEDDIIYTQDFTVPGQVPEEEASHNGQRRGLPKAVCMNGTEAAQLSTKSRAEGRAPNPARKACSASSKIRRLSACKQQ

Variants of: B1
Assay: STK11 functional score (HeLa growth suppression), rescaled enrichment; synonymous median = 1, nonsense median = 0 (normalised score)
Conditions: with HeLa; variant type: missense
Protocol: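 Deep mutational scan (TileSeq/POPCode codon randomisation) of full-length codon-optimised STK11 cDNA integrated at a Bxb1 landing pad (AAVS1) in HeLa cells. Restoring functional STK11 suppresses HeLa proliferation. Variant frequencies were measured by NGS before and after about two weeks of growth. The error-corrected enrichment log-ratio was rescaled so that synonymous median = 1 and nonsense median = 0, scores above 1 were compressed, and codon-level and three biological replicate scores were combined; error is the bootstrapped standard error. Scale: synonymous median = 1, nonsense median = 0; below 0.5 = damaging.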

STK11 functional score of substitutions, site by site:
N109: H -0.0132 | V 0.132 | T 0.928 | W 0.336 | S 0.492 | L 0.662 | D 0.477 | G 0.374 | M 0.647 | A 0.625 | I 0.256 | K 1.14 | P -0.121 | R 0.707 | Q 0.886
K122: S 1.65 | H 1.68 | M 1.25 | L 1.43 | V 0.86 | D 1.52 | A 1.18 | F 1.25 | E 0.911 | C 1.46 | R 1.69 | T 1.61 | N 1.51 | W 1.4 | Q 0.235 | P 1.68
R104: V 0.88 | L 1.4 | K 1.31 | T 1.3 | S 0.76 | Y 0.684 | I 1.23 | Q 1.21 | F 1.19 | G 0.389 | D 0.685
V114: W 0.805 | P 0.872 | Y 1.59 | R 0.501 | D 1.17 | C 0.202 | A 0.829 | F 1.03 | S 0.384 | L 0.271 | T 1.43
H107: G 0.812 | L 0.324 | A 0.964 | I 0.0231 | M 0.523 | W 0.165 | Y 0.262 | V 0.138 | T 1.02 | F 0.159 | P 0.25 | R 0.205 | S 0.803 | E 0.776
Q112: V 1.01 | M 0.897 | S 1.1 | A 1.24 | W 0.604 | R 0.64 | N 1.55 | G 0.967 | I 1.52 | L 1.08 | P 1.24 | Y 1.01 | T 1.27 | F 1.11
V116: S 0.887 | L 1.14 | A 0.197 | G 0.415 | R 0.888 | N 0.962 | I 0.327 | W 0.541 | C 0.415 | H 1.18 | P 0.975 | E 1.52
L113: R 0.684 | C 1.16 | Q 1.02 | P 0.54 | S 0.517 | A 0.492 | G 0.252 | V 0.44 | I 0.313 | W 0.222 | D -0.168 | E 1.13 | H 0.781 | Y 1.67
N119: A 1.44 | G 0.965 | D 0.736 | V 0.707 | E 0.994 | R 1.26 | W 1.58 | S 0.694 | F 1.16 | M 0.408 | L 1.17 | I 1.51 | Y 1.12 | K 1.18 | T 1.42 | P 1.37 | H 1.3
I111: V 0.948 | S 0.535 | P 1.25 | L 0.392 | M 0.886 | W -0.448 | D 1.6 | Q 1.66 | G 0.385 | R 1.16 | Y 0.97 | F 0.365 | T 0.687
D115: E 1.27 | S 1.6 | L 1.19 | R 1.52 | M 1.06 | N 1.65 | G 0.497 | Y 0.294 | P 0.396 | W 0.727 | V 1.27
E120: P 1.42 | V 1.09 | I 1.55 | L 1.38 | G 1.26 | Q 1.16 | N 1.68 | H 1.66 | R 0.779 | S 1.42 | F 1.52 | T 1.43 | W 0.626 | Y 0.964 | C 0.373 | M 1.11 | A 0.817
Y118: M 1.62 | H 1.14 | K 0.568 | W 0.378 | A 0.627 | E -0.175 | F 0.519 | I 1.32 | N 0.286 | G 1.23 | S 0.99 | T 1.61 | R 1.04 | C 0.723 | L 0.633 | P 1.3 | V 0.988 | Q 1.52
L105: G 0.712 | C 1.53 | P 0.588 | V 0.842 | M 1.18 | A 1.32 | Y 1.36 | D 0.494 | S 1.29 | I 1.57 | R 0.653 | W 0.397
R106: P 1.14 | Y 1.64 | G 0.687 | T 1.69 | V 1.6 | A 1.45 | F 1.56 | I 1.71 | E 1.63 | M 1.59 | S 1.49 | L 1.15 | H 1.62
Y126: C 0.357 | A 1.21
K124: V 1.06 | N 1.27 | G 1.04 | L 0.951 | W 0.166 | Q 1.61 | D 0.919 | R 1.18 | H 1.3 | Y 1.25 | P 0.692 | S 0.355 | A 1.13 | I 1.51
E121: R 1.31 | A 0.765 | S 1.17 | P 1.66 | G 1.18 | V 1.41 | Y 1.36 | Q 1.08 | W 0.251 | I 1.42 | L 1.43 | T 1.13 | M 0.84 | F 0.824 | K 0.738 | D 0.812 | N 1.57
Q123: C 1.35 | M 1.6 | R 0.312 | K 0.3 | P 0.451 | W 0.588 | A 1.11 | T 1.27 | Y 1.01 | V 0.961 | F 0.854 | D 0.981 | H 1.11 | E 1.15 | I 0.581 | S 1.49 | L 0.679 | G 0.98
M125: A 1.14 | W 1.25 | K 1.04 | V 0.78 | D 0.704 | G 1.03 | H 0.857 | L 1 | Y 1.31 | Q 1.68 | S 0.769 | R 0.355 | P 0.267 | I 1.11
L117: N 1.44 | V 0.689 | Q 1.33 | F 0.858 | W 1.29 | T 0.762 | R 1.15 | G 0.823 | S 0.291 | K 1.3 | E 1.45 | P 0.386 | A 1.27 | Y 1.55 | H 1.05
V110: C 0.955 | I 0.703 | E -0.206 | N 0.651 | P 0.481 | L 1.23 | R -0.0313 | Y 0.623 | A 0.184 | W 0.328 | M 0.358 | G 0.297 | D 0.338 | T 1.51 | S 0.535 | H 0.958
K108: G 0.95 | A 1.25 | F 1.04 | V 0.939 | H 1.26 | T 1.33 | R 1.33 | D 0.31 | S 0.866 | I 1.43 | Q 1.39 | N 1.29 | P 1.35 | W 0.834 | L 1.1
R103: G 0.667 | H 1.6 | I 1 | A 1.42 | K 1.18 | C 1.05 | L 0.918 | V 0.764 | W 0.732 | E 1.68 | P 0.985 | T 1.32 | Y 1.15 | Q 1.27 | S 1.02
